Laboratory results from patent publication US20260103529A1 (CONFO THERAPEUTICS N V, published 2026).

Key:
Assay in all cases: flow cytometry on HEK293T cells transiently expressing Flag-tagged receptor; receptor presence confirmed by anti-Flag detection
[1] = target: T1, human MC1R (melanocortin 1 receptor) (human, UniProt Q01726 1-317)
T1 construct: whole, on cells; Flag-tagged in flow cytometry; transiently expressed in HEK293T/HEK293 cells; also called hMC1R

[2] = target: T2, human MC3R (melanocortin 3 receptor) (human, UniProt P41968 1-323)
T2 construct: whole, on cells; Flag-tagged in flow cytometry; transiently expressed in HEK293T/HEK293 cells
T2 sequence (P41968 whole entry): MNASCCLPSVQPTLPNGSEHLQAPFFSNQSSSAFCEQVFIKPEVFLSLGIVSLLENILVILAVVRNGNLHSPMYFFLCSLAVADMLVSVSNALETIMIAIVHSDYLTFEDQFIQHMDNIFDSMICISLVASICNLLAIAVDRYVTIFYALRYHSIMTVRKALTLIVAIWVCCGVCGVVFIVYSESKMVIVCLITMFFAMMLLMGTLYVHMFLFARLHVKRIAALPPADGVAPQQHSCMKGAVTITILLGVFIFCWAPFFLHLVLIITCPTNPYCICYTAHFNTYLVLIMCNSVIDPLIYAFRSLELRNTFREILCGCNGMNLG

[3] = target: T3, human MC5R (melanocortin 5 receptor) (human, UniProt P33032 1-325)
T3 construct: whole, on cells; Flag-tagged in flow cytometry; transiently expressed in HEK293T/HEK293 cells
T3 sequence (P33032 whole entry): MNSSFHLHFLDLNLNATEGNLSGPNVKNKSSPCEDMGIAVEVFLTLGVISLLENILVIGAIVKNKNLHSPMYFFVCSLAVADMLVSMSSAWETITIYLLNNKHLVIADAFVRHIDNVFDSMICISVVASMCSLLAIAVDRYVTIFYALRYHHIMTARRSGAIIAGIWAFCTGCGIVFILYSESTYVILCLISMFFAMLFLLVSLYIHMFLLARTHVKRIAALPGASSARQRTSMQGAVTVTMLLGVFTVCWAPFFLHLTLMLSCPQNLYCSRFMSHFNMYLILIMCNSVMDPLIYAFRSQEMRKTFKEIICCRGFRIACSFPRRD

[4] = target: T4, human MC2R (melanocortin 2 receptor) (human, UniProt Q01718 1-297)
T4 construct: whole, on cells; Flag-tagged, transiently expressed in HEK293T cells
T4 sequence (Q01718 whole entry): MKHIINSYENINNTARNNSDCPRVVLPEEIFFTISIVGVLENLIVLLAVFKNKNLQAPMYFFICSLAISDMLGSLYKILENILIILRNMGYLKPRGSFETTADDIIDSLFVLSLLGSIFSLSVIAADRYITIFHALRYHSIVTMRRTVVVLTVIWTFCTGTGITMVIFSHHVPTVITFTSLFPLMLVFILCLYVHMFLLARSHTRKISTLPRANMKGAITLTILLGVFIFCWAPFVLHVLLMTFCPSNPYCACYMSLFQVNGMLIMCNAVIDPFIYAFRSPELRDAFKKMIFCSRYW

Measured: binding result

T1 sequence (Q01726 whole entry): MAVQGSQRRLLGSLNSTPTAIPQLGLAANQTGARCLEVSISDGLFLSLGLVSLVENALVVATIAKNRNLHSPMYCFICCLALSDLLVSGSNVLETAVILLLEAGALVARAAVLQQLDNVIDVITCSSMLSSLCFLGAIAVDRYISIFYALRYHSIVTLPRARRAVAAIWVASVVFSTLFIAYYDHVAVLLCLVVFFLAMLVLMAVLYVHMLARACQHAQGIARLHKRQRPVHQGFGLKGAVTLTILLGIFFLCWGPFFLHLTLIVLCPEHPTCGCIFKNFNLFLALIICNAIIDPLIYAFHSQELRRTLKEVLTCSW

B1: pN0162 (VHH)
VHH: QVQLVESGGGLVQPGGSLRLSCAASGSAFSLNVMGWYRQTPGNQRALVAEITKDGSTNYADSAKGRFTISRDNAKNTVHLQMDSLKPEDTAVYYCKARTGRIVRPLDYWGQGTQVTVSS
notes: Agonist nanobody from llama immunisation, purified from E. coli; also called pN162
no binding (tested: 1 µM): all assays above
